Test results: PMC9510766

What was measured:
[1] = biological target: recombinant Cas2C of Leptospira interrogans serovar Copenhageni (rLinCas2C) (L. interrogans serovar Copenhageni strain Fiocruz L1-130); experiment: SEC; size-exclusion chromatography of the Ni-NTA purified recombinant protein; conditions not shown
[2] = biological target: recombinant Cas2C of Leptospira interrogans serovar Lai (rLinCas2C_Lai) (L. interrogans serovar Lai); experiment: as above

Substance	stoichiometry N [1]	stoichiometry N [2]
recombinant Cas2C of Leptospira interrogans serovar Copenhageni (rLinCas2C) (enzyme)	2	–
recombinant Cas2C of Leptospira interrogans serovar Lai (rLinCas2C_Lai) (enzyme)	–	3
